According to PMC9287719 (2022):
Residue numbers refer to the chain shown, from its start. Like-named read-outs stand apart in the source and are kept apart here. Blank lines part the entries; values can stand above or below the binder they belong to.

What was measured:
[1] = target: T1, Recombinant FcγRIIa (H131) with C-terminus Biotin (human, UniProt P12318 34-217, C-terminus Biotin)
T1 chain: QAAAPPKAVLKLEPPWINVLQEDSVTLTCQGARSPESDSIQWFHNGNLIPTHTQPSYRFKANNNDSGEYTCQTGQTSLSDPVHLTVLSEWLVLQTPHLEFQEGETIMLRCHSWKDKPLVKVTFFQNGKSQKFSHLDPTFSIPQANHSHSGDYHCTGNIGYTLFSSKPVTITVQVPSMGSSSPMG

[2] = target: T2, Recombinant FcγRIIa (R131) with C-terminus Biotin (human, UniProt P12318, C-terminus Biotin)
T2 chain: T1 chain with H134R

[3] = target: T3, Recombinant FcγRI with C-terminus Biotin (human, UniProt P12314 16-292, C-terminus Biotin)
T3 chain: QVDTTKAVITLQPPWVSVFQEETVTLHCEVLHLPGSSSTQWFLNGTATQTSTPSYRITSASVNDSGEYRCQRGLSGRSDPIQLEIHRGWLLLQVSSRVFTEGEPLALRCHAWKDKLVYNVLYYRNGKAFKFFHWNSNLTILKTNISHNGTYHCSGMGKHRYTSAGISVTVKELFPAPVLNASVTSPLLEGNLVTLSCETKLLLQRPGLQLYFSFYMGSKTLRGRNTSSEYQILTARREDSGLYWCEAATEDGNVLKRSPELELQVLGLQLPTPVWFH

[4] = target: T4, Recombinant FcγRIIIa (V158) with C-terminus Biotin (human, UniProt P08637, C-terminus Biotin)
T4 sequence (P08637 17-208 F176V): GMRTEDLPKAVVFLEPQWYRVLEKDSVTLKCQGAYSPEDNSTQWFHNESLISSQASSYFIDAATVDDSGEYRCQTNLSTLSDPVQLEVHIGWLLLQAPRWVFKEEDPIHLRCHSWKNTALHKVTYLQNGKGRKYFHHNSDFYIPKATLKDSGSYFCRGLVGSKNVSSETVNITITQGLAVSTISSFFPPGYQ

[5] = target: T3, Recombinant FcγRI with C-terminus Biotin
[6] = target: Recombinant FcγRIIIa (F158) with C-terminus Biotin (human, UniProt P08637 17-208, C-terminus Biotin)
Chain of Recombinant FcγRIIIa (F158) with C-terminus Biotin (P08637 17-208): as the sequence (P08637 17-208 F176V) above, with V160F counted along it

[7] = target: T1, Recombinant FcγRIIa (H131) with …
[8] = target: T5, Recombinant FcγRIIb with C-terminus Biotin (human, UniProt P31994 43-217, C-terminus Biotin)
T5 chain: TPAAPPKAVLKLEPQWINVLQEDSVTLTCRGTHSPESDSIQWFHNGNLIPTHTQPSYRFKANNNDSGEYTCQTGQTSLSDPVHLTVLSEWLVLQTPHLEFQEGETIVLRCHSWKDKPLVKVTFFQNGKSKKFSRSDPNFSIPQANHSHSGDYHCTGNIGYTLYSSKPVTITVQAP

[9] = target: T2, Recombinant FcγRIIa (R131) with …
[10] = target: T4, Recombinant FcγRIIIa (V158) with …; remark: listed apart in the source

IC50 [1]: 137 nM
IC50 [2]: 1570 nM
B1: Panitumumab (antibody)
chain 1: QVQLQESGPGLVKPSETLSLTCTVSGGSVSSGDYYWTWIRQSPGKGLEWIGHIYYSGNTNYNPSLKSRLTISIDTSKTQFSLKLSSVTAADTAIYYCVRDRVTGAFDIWGQGTMVTVSS
chain 2: DIQMTQSPSSLSASVGDRVTITCQASQDISNYLNWYQQKPGKAPKLLIYDASNLETGVPSRFSGSGSGTDFTFTISSLQPEDIATYFCQHFDHLPLAFGGGTKVEIK

IC50 [3]: 0.44 nM
IC50 [4]: 1960 nM
B2: Pembrolizumab (antibody)
chain 1: QVQLVQSGVEVKKPGASVKVSCKASGYTFTNYYMYWVRQAPGQGLEWMGGINPSNGGTNFNEKFKNRVTLTTDSSTTTAYMELKSLQFDDTAVYYCARRDYRFDMGFDYWGQGTTVTVSS
chain 2: EIVLTQSPATLSLSPGERATLSCRASKGVSTSGYSYLHWYQQKPGQAPRLLIYLASYLESGVPARFSGSGSGTDFTLTISSLEPEDFAVYYCQHSRDLPLTFGGGTKVEIK

IC50 [5]: 0.06 nM
IC50 [6]: 101 nM
IC50 [7]: 244 nM
IC50 [8]: 2900 nM
IC50 [9]: 394 nM
IC50 [10]: 15.5 nM
B3: Infliximab (antibody)
chain 1: EVKLEESGGGLVQPGGSMKLSCVASGFIFSNHWMNWVRQSPEKGLEWVAEIRSKSINSATHYAESVKGRFTISRDDSKSAVYLQMTDLRTEDTGVYYCSRNYYGSTYDYWGQGTTLTVSS
chain 2: DILLTQSPAILSVSPGERVSFSCRASQFVGSSIHWYQQRTNGSPRLLIKYASESMSGIPSRFSGSGSGTDFTLSINTVESEDIADYYCQQSHSWPFTFGSGTNLEVK
